Experimental findings from patent US11203773B2, “Designer ribosomes and methods of use thereof for incorporating non-standard amino acids into polypeptides” (Yale University, priority 2016, dated 2021) are described below.

Substrate in data set [1]: N[C@@H](Cc1ccc(O)cc1)C(=O)O
Nature of the data set: Aminoacylation of 32P-tRNA with α- and β3-amino acids. It is filed as biochemical, E. coli. As to conditions: other: aminoacylation, TyrRS.

Substrate in data set [2]: N[C@@H](Cc1ccc(O)cc1)C(=O)O
Briefly: Adenylation of α- and β-Tyr, coupled MESG/PNP pyrophosphate release assay. It counts as biochemical, E. coli. As to conditions: other: adenylation, TyrRS. From the text:
ii. Adenylation of α- and β-Tyr catalyzed by E. coli TyrRS. These reactions were monitored spectrophotometrically in a coupled assay using inorganic pyrophosphatase, 2-amino-6-mercapto-7-methylpurine ribonucleoside (MESG), and purine nucleoside phosphorylase (PNP) to monitor the rate of pyrophosphate release, according to the manufacturer's instructions (Enzcheck Pyrophosphate assay kit, Thermo Fisher Scientific). The assay measures the increase in absorbance at 360 nm due to MESG phosphorolysis, and two molecules of MESG are consumed per pyrophosphate generated. This direct assay could be employed for TyrRS because the rate of ATP hydrolysis (in the absence of amino acid substrate) was insignificant, which was not the case for the other synthetases which therefore required the more laborious pyrophosphate exchange assay described above. […] For TyrRS, kcat is the turnover number (units of reciprocal time) since the change in absorbance can be directly correlated to concentration of pyrophosphate formed.

Substrate in data set [3]: N[C@@H](Cc1ccccc1)C(=O)O
Nature of the data set: purified protein, by the assay type. As to conditions: other: adenylation, PheRS; pH 7.0; 25.0 °C.

Substrate in data set [4]: N[C@@H](Cc1ccccc1)C(=O)O
Nature of the data set: Aminoacylation of 32P-tRNA with α- and β3-amino acids. It counts as biochemical, E. coli. As to conditions: other: aminoacylation, PheRS.

Substrate in data set [5]: CSCC[C@H](N)C(=O)O
Briefly: purified protein, by the assay type. As to conditions: MetRS.

For orientation: Km means the concentration of substrate that gives half-maximal velocity. In general, kcat refers to the maximal rate divided by the concentration of active sites. As usually defined, the kcat/Km is the second-order rate constant that governs catalysis at low substrate concentration.

B1: E. coli TyrRS (Escherichia coli K-12) (protein)
chain: MASSNLIKQLQERGLVAQVTDEEALAERLAQGPIALYCGFDPTADSLHLGHLVPLLCLKRFQQAGHKPVALVGGATGLIGDPSFKAAERKLNTEETVQEWVDKIRKQVAPFLDFDCGENSAIAANNYDWFGNMNVLTFLRDIGKHFSVNQMINKEAVKQRLNREDQGISFTEFSYNLLQGYDFACLNKQYGVVLQIGGSDQWGNITSGIDLTRRLHQNQVFGLTVPLITKADGTKFGKTEGGAVWLDPKKTSPYKFYQFWINTADADVYRFLKFFTFMSIEEINALEEEDKNSGKAPRAQYVLAEQVTRLVHGEEGLQAAKRITECLFSGSLSALSEADFEQLAQDGVPMVEMEKGADLMQALVDSELQPSRGQARKTIASNAITINGEKQSDPEYFFKEEDRLFGRFTLLRRGKKNYCLICWK
notes: made in house; host or cells: E. coli BL21(DE3)
As for B1, in data set [1], the Km is 12.4 ± 4.8 µM, the kcat stood at 1.18 ± 0.128 s⁻¹ and the kcat/Km amounted to 95000 ± 38300 M⁻¹ s⁻¹. In data set [2], the Km stood at 21.4 ± 6.9 µM, the kcat stood at 0.0203 ± 0.00183 s⁻¹ and the kcat/Km came out at 1000 ± 333 M⁻¹ s⁻¹.

B2: E. coli PheRS (Escherichia coli K-12) (protein)
chain: MSHLAELVASAKAAISQASDVAALDNVRVEYLGKKGHLTLQMTTLRELPPEERPAAGAVINEAKEQVQQALNARKAELESAALNARLAAETIDVSLPGRRIENGGLHPVTRTIDRIESFFGELGFTVATGPEIEDDYHNFDALNIPGHHPARADHDTFWFDTTRLLRTQTSGVQIRTMKAQQPPIRIIAPGRVYRNDYDQTHTPMFHQMEGLIVDTNISFTNLKGTLHDFLRNFFEEDLQIRFRPSYFPFTEPSAEVDVMGKNGKWLEVLGCGMVHPNVLRNVGIDPEVYSGFAFGMGMERLTMLRYGVTDLRSFFENDLRFLKQFK
notes: as for B1
On to B2, for which the Michaelis-Menten constant (Km) in data set [3] amounted to 52.8 ± 25.8 µM; in data set [4] it was 200.4 ± 78.8 µM.

B3: E. coli MetRS (Escherichia coli K-12) (protein)
chain: MTQVAKKILVTCALPYANGSIHLGHMLEHIQADVWVRYQRMRGHEVNFICADDAHGTPIMLKAQQLGITPEQMIGEMSQEHQTDFAGFNISYDNYHSTHSEENRQLSELIYSRLKENGFIKNRTISQLYDPEKGMFLPDRFVKGTCPKCKSPDQYGDNCEVCGATYSPTELIEPKSVVSGATPVMRDSEHFFFDLPSFSEMLQAWTRSGALQEQVANKMQEWFESGLQQWDISRDAPYFGFEIPNAPGKYFYVWLDAPIGYMGSFKNLCDKRGDSVSFDEYWKKDSTAELYHFIGKDIVYFHSLFWPAMLEGSNFRKPSNLFVHGYVTVNGAKMSKSRGTFIKASTWLNHFDADSLRYYYTAKLSSRIDDIDLNLEDFVQRVNADIVNKVVNLASRNAGFINKRFDGVLASELADPQLYKTFTDAAEVIGEAWESREFGKAVREIMALADLANRYVDEQAPWVVAKQEGRDADLQAICSMGINLFRVLMTYLKPVLPKLTERAEAFLNTELTWDGIQQPLLGHKVNPFKALYNRIDMRQVEALVEASKEEVKAAAAPVTGPLADDPIQETITFDDFAKVDLRVALIENAEFVEGSDKLLRLTLDLGGEKRNVFSGIRSAYPDPQALIGRHTIMVANLAPRKMRFGISEGMVMAAGPGGKDIFLLSPDAGAKPGHQVK
In the case of B3, the Km in data set [5] (other: adenylation, pH 7.0, 25.0 °C) was found to be 23.4 ± 8.0 µM. Besides, in data set [5] (other: aminoacylation), the Km came to 243.4 ± 55.7 µM, the kcat is 0.0233 s⁻¹ and the catalytic efficiency (kcat/Km) was determined as 100 M⁻¹ s⁻¹.
